Experiments:
[1] = target: T1, human SIRPα variant 1 (human, UniProt P78324 31-504); assay: flow cytometry, blockade of DyLight488-hCD47/Fc binding to U-937 cells
T1 construct: full length ORF on transfected CHO-K1 or HEK293 cells; entry includes the signal peptide; also called hSIRPαV1; SIRPαV1
Method: (§1) hCD47 blockade for the KWAR23, clone 18D5, and hSIRPα.40A antibodies was assessed by flow cytometry. For this purpose, THP-1 (ATCC TIB-202) and U-937 (ATCC CRL-1593.2) monocyte cell lines were used as the source of hSIRPα in the assay. THP-1 and U-937 cells were seeded in 96-well round bottomed tissue culture plates and incubated for 45 minutes with FcR Blocking Reagent (Miltenyi Biotec) and indicated anti-hSIRPα antibodies (20 μg/mL and dilutions thereof) in PBS/1% BSA at 4° C. […] After this labeling procedure, cells were washed two times, resuspended in PBS/1% BSA containing 0.1 μg/mL DAPI (BioLegend), and analysed by flow cytometry on the FACSVerse (BD Biosciences). Data were processed and analysed with FlowJo V10 software (FlowJo, LLC) and plotted using GraphPad Prism 6 (GraphPad Software, Inc.). Binding of recombinant hCD47 fused to an Fc domain of human IgG1 was monitored in the presence of increasing amounts of the anti-hSIRPα antibodies. […] IC50 values represent the concentration at which half of the inhibition is observed.

[2] = target: T2, human SIRPα variant 2 (human, UniProt P78324 31-504); assay: flow cytometry, blockade of DyLight488-hCD47/Fc binding to THP-1 cells
T2 construct: full length ORF on transfected CHO-K1 cells; also called hSIRPαV2; SIRPαV2
Method: as §1

[3] = target: T3, human SIRPγ (human, UniProt Q9P1W8 29-387); assay: CELISA, CHO-K1 transfectants; average of two experiments
T3 construct: on transfected CHO-K1 cells; also called hSIRPγ
Method: (§2) The binding specificity of antibody hSIRPα.50A to hSIRPα was compared antibody KWAR23 (Canadian Patent 2939293 A1), in a CELISA format. CHO-K1 cells were transiently transfected with hSIRPαV1, hSIRPαV2, hSIRPβ1, and hSIRPγ (GenBank accession: NM_018556.3) (SEQ ID NO: 39) cDNAs. Subsequently, hSIRPα binding was assessed by CELISA using CHO-K1.hSIRPαV1, CHO-K1.hSIRPαV2, CHO-K1.hSIRPβ1, and CHO-K1.hSIRPγ cells. Detection of bound antibody was performed with goat-anti-mouse IgG-HRP (Southern Biotech) for mouse antibodies including hSIRPα.50A and control antibodies or, alternatively, with goat-anti-human IgG-HRP conjugate (Jackson Immuno Research) for the KWAR23 antibody. KWAR23 (SEQ ID NO: 130; SEQ ID NO: 131) was expressed as a chimeric human IgG4 kappa antibody in CHO cells. As shown in FIG. 2 and the following Table 9, KWAR23 antibody cross-reacts with all members of the SIRP receptor family tested: it binds to hSIRPαV1, hSIRPαV2, hSIRPβ1, and hSIRPγ.

[4] = target: T1, human SIRPα variant 1; assay: as above
Method: as §2

[5] = target: T2, human SIRPα variant 2; assay: as above
Method: as §2

[6] = target: T4, hSIRPβ1 transcript variant 3/hSIRPβL (human, UniProt Q5TFQ8 30-398); assay: CELISA, CHO-K1 transfectants
T4 construct: also called human SIRPβL
Method: (§3) Reactivity was confirmed using CHO-K1 cells (ATCC CCL-61) that had been transiently transfected, using Lipofectamine 2000, with cDNA encoding the full length open reading frame of hSIRPαV1, hSIRPαV2, hSIRPβ1, hSIRPβL, and hSIRPγ subcloned into the pCI-neo vector (Promega, Madison, Wis.). CHO-K1.hSIRPαV1, CHO-K1.hSIRPαV2, CHO-K1.hSIRPβ1, CHO-K1.hSIRPβL, and CHO-K1.hSIRPγ cells were seeded in culture medium (DMEM-F12 (Gibco) supplemented with 5% New Born Calf Serum (BioWest) and Pen/Strep (Gibco)) in 96-well flat-bottom tissue culture plates and incubated at 37° C., 5% CO₂ and 95% humidity for 24 hours. Subsequently, culture medium was removed and cells were incubated for 1 hour at 37° C., 5% CO₂ and 95% humidity with purified hSIRPα antibodies (used at 10 μg/mL and dilutions thereof). Next, cells were washed with PBS-T and incubated for 1 hour at 37° C., 5% CO₂ and 95% humidity with goat-anti-mouse IgG-HRP (Southern Biotech). Subsequently, cells were washed three times with PBS-T and immunoreactivity against hSIRPαV1, hSIRPαV2, hSIRPβ1, hSIRPβL, and hSIRPγ was visualized with TMB Stabilized Chromogen (Invitrogen). Reactions were stopped with 0.5 M H₂SO₄ and absorbances were read at 450 and 610 nm.
(§4) The KWAR23 antibody cross-reacts with all members of the SIRP receptor family tested: it binds to hSIRPαV1, hSIRPαV2, hSIRPβ1, hSIRPβL, and hSIRPγ.

[7] = target: T3, human SIRPγ; assay: CELISA, CHO-K1 transfectants
Method: as §3, §4

[8] = target: T1, human SIRPα variant 1; assay: CELISA, CHO-K1 transfectants
Method: as §3, §4
Target sequence in this assay (P78324 31-504 limits assumed, change not shown): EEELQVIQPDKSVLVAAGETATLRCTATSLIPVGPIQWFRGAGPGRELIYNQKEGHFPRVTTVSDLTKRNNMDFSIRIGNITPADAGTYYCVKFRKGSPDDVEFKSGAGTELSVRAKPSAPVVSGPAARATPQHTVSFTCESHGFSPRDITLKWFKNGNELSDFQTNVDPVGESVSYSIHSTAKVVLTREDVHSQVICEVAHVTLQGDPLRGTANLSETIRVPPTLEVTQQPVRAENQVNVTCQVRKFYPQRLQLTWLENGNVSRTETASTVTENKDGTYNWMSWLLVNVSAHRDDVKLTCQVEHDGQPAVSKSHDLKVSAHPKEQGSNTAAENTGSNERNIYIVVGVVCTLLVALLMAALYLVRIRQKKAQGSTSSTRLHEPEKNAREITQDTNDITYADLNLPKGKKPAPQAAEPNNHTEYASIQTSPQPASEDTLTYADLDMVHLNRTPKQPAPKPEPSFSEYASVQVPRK

[9] = target: T2, human SIRPα variant 2; assay: CELISA, CHO-K1 transfectants
Method: as §3, §4

T3 sequence (Q9P1W8 29-387 limits assumed): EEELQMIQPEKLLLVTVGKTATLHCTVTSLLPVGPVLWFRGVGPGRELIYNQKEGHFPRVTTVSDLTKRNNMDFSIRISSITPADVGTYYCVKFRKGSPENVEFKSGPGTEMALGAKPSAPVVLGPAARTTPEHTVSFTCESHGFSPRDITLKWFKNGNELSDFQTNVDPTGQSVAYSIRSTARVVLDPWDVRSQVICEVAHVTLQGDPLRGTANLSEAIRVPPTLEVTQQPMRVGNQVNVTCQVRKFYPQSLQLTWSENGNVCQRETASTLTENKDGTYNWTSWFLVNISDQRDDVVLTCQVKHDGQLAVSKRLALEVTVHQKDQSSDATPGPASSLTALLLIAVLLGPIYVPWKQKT
T2 sequence (P78324 other isoform, or with tags, fused parts or gaps mutant limits assumed): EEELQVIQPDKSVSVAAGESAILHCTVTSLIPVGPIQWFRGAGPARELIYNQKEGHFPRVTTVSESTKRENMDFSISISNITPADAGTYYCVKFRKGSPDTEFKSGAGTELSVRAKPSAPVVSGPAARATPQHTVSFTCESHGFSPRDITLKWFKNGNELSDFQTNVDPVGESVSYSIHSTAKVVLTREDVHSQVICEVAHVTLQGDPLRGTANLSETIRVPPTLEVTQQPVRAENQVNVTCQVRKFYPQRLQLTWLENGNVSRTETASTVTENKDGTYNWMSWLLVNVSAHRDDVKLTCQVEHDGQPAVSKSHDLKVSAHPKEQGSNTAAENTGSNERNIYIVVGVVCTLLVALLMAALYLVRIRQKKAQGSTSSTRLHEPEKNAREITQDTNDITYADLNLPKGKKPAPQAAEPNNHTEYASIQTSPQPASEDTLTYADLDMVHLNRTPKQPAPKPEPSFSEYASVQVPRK
T4 sequence (Q5TFQ8 30-398 limits assumed, change not shown): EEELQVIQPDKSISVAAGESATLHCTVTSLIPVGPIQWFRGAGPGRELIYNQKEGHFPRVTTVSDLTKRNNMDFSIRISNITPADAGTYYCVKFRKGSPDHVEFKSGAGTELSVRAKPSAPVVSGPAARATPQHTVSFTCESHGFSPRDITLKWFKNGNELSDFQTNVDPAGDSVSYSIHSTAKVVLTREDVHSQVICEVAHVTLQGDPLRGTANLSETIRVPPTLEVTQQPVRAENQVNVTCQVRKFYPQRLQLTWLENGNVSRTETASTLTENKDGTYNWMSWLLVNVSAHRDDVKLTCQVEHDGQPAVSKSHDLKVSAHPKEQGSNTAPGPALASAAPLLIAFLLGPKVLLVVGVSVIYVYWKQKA

B1: hSIRPα.40A (antibody, mouse IgG1, kappa, V domains shown)
VH: EVQFQQSGTVLARPGTSVKMSCKASGSTFTSYWMHWVKQGPGQGLQWIGAIYPVNNDTTYNQKFKGKAELTVVTSTSTAYMEVSSLTNEDSAVYYCTRSFYYSLDAAWFVYWGQGTLVTVSA
VL: DIQMTQSPSSLSASLGERVSLTCRASQDIGSRLNWLQQEPDGTIKRLIYATSSLDSGVPKRFSGSRSGSDYSLTISGLESEDFVDYYCLQYASSPFTFGGGTKLEINR
notes: mouse antibody, full chains without signal peptide; also called mouse hSIRPα.40A
Which results are given for B1?
IC50 [1]: 1.42 nM; IC50 [2]: 0.548 nM

B2: KWAR23 (antibody, V domains shown)
VH: EVQLQQSGAELVKPGASVKLSCTASGFNIKDYYIHWVQQRTEQGLEWIGRIDPEDGETKYAPKFQDKATITADTSSNTAYLHLSSLTSEDTAVYYCARWGAYWGQGTLVTVSS
VL: QIVLTQSPAIMSASPGEKVTLTCSASSSVSSSYLYWYQQKPGSSPKLWIYSTSNLASGVPARFSGSGSGTSYSLTISSMEAEDAASYFCHQWSSYPRTFGAGTKLELK
Which EC50 [3] does the source give for B2 here?
The EC50 was 0.04 nM.

What about the EC50 [4] of the same binder?
Its EC50 is 0.081 nM.

What about the EC50 [5] of the same binder?
Its EC50 is 0.051 nM.

What about the IC50 [1] of the same binder?
The IC50 was 0.284 nM.

What about the IC50 [2] of the same binder?
Its IC50 is 0.132 nM.

And the EC50 [6]?
The EC50 was 0.097 nM.

What about the EC50 [7] of the same binder?
The EC50 was 0.043 nM.

What about the EC50 [8] of the same binder?
Its EC50 is 0.067 nM.

What about the EC50 [9] of the same binder?
The EC50 was 0.062 nM.

B3: hSIRPα.50A (antibody, V domains shown)
VH: QVQLQQSGPELVKPGASVRISCKASGFTFTNYYIHWVKQRPGQGLEWIGWIYPGNVNTKYNEKFKAKATLTADKSSTTAYMQLSSLASEDSAVYFCARPTIIATDFDVWGAGTTVTVSS
VL: DIVMTQSHKFMSTSVGDRVNITCKASQGVGTAVGWYQQKPGQSPRLLIYWASTRHTGVPDRFTGSGSGTDFSLAISNVQSEDLADYFCQQYSTYPFTFGGGTNLEIK
notes: light chain constant domain not tied; also called mouse hSIRPα.50A; hSIRPα.50A.mIgG1
Which results are given for B3?
EC50 [3]: 1.25 nM; EC50 [4]: 1.36 nM; EC50 [5]: 1.3 nM; EC50 [6]: 0.639 nM; EC50 [7]: 1.48 nM; EC50 [8]: 1.63 nM; EC50 [9]: 1.63 nM

From patent US20180312587A1 (ADURO BIOTECH HOLDINGS EUROPE B V, published 2018)
